What was measured:
Conditions in all cases: tags: C-terminal GS linker-SV40 NLS
Int21 = molecular target: T1, Int21 (Streptococcus mitis B6); assay: cell_activity; attB x attP EGFP inversion reporter, HEK293FT
T1 chain: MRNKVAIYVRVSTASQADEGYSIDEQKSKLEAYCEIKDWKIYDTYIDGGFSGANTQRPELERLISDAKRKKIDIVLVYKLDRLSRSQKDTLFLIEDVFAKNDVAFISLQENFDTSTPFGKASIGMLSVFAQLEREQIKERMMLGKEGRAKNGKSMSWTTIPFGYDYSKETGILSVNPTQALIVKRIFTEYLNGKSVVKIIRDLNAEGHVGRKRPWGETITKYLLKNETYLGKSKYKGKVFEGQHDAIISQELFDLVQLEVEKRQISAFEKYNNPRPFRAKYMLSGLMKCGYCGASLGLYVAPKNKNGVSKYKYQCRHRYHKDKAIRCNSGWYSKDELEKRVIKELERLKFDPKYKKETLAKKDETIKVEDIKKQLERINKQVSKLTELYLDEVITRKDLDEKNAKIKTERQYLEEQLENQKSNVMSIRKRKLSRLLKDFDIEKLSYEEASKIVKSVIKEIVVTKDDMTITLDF

Int16 = molecular target: T2, Int16 (Enterococcus faecalis D32); assay: cell_activity
T2 chain: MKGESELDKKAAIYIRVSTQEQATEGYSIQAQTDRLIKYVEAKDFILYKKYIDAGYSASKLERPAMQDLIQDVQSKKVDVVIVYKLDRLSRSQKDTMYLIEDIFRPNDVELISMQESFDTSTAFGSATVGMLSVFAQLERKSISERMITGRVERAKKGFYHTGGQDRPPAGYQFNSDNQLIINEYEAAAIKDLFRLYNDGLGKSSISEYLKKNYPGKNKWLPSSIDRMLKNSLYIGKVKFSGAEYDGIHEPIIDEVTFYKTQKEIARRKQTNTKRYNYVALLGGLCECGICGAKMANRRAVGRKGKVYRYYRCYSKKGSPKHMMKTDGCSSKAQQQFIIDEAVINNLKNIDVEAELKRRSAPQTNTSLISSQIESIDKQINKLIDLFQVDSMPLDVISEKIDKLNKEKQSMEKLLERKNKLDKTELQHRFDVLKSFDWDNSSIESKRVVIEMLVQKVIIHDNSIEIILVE

Int15 = molecular target: T3, Int15 (Listeria monocytogenes SLCC2372 (phage …)); assay: cell_activity
T3 chain: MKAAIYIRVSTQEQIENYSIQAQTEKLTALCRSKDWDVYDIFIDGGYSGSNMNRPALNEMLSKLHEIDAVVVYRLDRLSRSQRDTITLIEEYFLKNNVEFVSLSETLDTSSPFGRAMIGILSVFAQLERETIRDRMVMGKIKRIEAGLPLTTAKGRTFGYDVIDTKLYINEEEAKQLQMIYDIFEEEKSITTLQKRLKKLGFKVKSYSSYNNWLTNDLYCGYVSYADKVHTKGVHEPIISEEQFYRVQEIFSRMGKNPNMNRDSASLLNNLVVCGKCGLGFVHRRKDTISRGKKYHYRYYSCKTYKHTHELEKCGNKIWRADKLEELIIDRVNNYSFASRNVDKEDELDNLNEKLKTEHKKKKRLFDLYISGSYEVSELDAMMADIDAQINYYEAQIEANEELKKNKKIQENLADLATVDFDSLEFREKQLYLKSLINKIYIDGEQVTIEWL

Int14 = molecular target: T4, Int14 (Listeria innocua Clip11262); assay: cell_activity; attB x attP EGFP inversion reporter, HEK293FT
T4 chain: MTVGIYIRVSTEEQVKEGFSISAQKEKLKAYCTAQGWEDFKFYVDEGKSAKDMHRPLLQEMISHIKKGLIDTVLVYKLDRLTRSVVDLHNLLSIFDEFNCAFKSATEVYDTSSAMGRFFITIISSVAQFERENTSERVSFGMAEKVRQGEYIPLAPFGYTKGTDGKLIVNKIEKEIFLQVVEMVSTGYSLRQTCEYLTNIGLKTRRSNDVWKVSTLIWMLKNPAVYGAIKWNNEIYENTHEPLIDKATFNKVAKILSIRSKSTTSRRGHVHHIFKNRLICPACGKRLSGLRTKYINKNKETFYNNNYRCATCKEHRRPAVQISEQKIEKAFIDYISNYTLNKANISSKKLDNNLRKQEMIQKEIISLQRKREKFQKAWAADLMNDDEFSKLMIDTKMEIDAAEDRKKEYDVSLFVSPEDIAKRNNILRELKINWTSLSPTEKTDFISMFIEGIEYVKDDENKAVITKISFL

Int18 = molecular target: T5, Int18 (Streptococcus pneumoniae JJA); assay: cell_activity
T5 chain: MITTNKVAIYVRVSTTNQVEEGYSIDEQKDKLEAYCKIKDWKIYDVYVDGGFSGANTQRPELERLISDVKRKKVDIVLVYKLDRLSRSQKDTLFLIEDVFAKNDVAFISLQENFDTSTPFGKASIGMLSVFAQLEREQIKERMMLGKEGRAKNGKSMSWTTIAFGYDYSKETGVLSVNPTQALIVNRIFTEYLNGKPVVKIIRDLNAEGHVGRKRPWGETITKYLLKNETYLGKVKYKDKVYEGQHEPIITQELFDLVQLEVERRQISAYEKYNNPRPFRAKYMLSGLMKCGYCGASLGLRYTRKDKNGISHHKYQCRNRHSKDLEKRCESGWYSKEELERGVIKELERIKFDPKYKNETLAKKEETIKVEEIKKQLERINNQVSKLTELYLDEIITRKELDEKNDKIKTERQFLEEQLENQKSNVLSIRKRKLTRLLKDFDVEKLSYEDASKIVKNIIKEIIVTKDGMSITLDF

Int13 = molecular target: T6, Int13 (Bacillus cytotoxicus NVH 391-98); assay: cell_activity; attB x attP EGFP inversion reporter, HEK293FT
T6 chain: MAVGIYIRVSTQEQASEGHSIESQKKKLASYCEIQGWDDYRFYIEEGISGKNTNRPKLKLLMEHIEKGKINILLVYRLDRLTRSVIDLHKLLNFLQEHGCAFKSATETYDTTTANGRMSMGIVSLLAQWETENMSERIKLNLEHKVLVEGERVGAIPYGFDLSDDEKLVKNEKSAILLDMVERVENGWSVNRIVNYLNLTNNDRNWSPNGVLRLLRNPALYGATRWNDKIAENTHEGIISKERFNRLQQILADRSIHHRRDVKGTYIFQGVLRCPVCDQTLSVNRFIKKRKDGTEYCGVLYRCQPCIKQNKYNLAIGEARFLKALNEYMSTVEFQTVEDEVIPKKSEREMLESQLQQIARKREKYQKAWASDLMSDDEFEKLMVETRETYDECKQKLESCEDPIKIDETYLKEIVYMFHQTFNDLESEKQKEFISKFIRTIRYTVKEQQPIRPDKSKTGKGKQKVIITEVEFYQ

Int22 = molecular target: T7, Int22 (Geobacillus thermoglucosidasius C56-YS93); assay: as above
T7 chain: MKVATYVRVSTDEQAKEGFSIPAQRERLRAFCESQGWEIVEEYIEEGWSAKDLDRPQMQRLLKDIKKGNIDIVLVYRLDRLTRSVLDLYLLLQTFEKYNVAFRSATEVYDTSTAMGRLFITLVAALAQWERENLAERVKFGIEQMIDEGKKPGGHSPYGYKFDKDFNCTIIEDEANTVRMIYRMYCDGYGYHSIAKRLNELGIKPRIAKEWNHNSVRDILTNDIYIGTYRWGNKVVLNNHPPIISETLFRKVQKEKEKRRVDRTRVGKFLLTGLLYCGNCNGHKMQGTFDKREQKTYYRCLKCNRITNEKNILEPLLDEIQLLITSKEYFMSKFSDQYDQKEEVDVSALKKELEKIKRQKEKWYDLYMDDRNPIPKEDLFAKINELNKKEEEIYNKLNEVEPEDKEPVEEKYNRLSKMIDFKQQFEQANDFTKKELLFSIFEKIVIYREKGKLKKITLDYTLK

B1: Int21 attB (dsDNA)
DNA 1: TAGGAGGAAAAAATATGTATAATAAAGTTATCATGATTGGGCGTTTGACGTCTACACCAGAAT
DNA 2: ATTCTGGTGTAGACGTCAAACGCCCAATCATGATAACTTTATTATACATATTTTTTCCTCCTA
In the case of B1, the binding signal (Int21) is reported as 0.184 fraction of Bxb1.

B2: Int16 attB (dsDNA)
DNA 1: TTCTGGACCATGATGCGCCACTTCCGAAATTTCAAAAAGATCAGTGGTCAAACGGCTCATTA
DNA 2: TAATGAGCCGTTTGACCACTGATCTTTTTGAAATTTCGGAAGTGGCGCATCATGGTCCAGAA
For B2, the binding signal (Int16) was 0.21 fraction of Bxb1.

B3: Int15 attP (dsDNA)
DNA 1: TTGTTTAGTCCCTCGTTTTCTCTCGTTGGACGGAGACGAATCGAGAAACTAAAATTATAAAT
DNA 2: ATTTATAATTTTAGTTTCTCGATTCGTCTCCGTCCAACGAGAGAAAACGAGGGACTAAACAA
B3 was tested, and the binding signal (Int15) was 1.86 fraction of Bxb1.

B4: Int14 attB (dsDNA)
DNA 1: TTATTGCAAGAAAAATGGGTTATAAGTACACATCAGGTTATAGTAATATCGAAAAAGGAAGC
DNA 2: GCTTCCTTTTTCGATATTACTATAACCTGATGTGTACTTATAACCCATTTTTCTTGCAATAA
For B4, the binding signal (Int14) was 0.248 fraction of Bxb1.

B5: Int18 attB (dsDNA)
DNA 1: TCTGGTGTAGACGTTAAACGTCCAATCAAGATAACTTTATTATACATATTTTCTTCCTCCTA
DNA 2: TAGGAGGAAGAAAATATGTATAATAAAGTTATCTTGATTGGACGTTTAACGTCTACACCAGA
For B5, the binding signal (Int18) was 1.76 fraction of Bxb1.

B6: Int14 attP (dsDNA)
DNA 1: TTATATAAAATAGTGTTTTTGTAAAGTACACATCACCATATTTGACAAAAAACCTATAAATA
DNA 2: TATTTATAGGTTTTTTGTCAAATATGGTGATGTGTACTTTACAAAAACACTATTTTATATAA
For B6, the binding signal (Int14) was 0.248 fraction of Bxb1.

B7: Int13 attP (dsDNA)
DNA 1: CAATAACGGTTGTATTTGTAGAACTTGACCAGTTGTTTTAGTAACATAAATACAACTCCGAATA
DNA 2: TATTCGGAGTTGTATTTATGTTACTAAAACAACTGGTCAAGTTCTACAAATACAACCGTTATTG
For B7, the binding signal (Int13) was 0.295 fraction of Bxb1.

B8: Int22 attP (dsDNA)
DNA 1: TTATAAACCTGTTTTAAAGTTAACTTTACATGCCTAACATTAACTCTTATACAGGTTAAGGT
DNA 2: ACCTTAACCTGTATAAGAGTTAATGTTAGGCATGTAAAGTTAACTTTAAAACAGGTTTATAA
With B8 the binding signal (Int22) was 0.945 fraction of Bxb1.

B9: Int15 attB (dsDNA)
DNA 1: CTGTAACTTTTTCGGATCAAGCTATGAGGGACGCAAAGAGGGAACTAAACACTTAATTGGTG
DNA 2: CACCAATTAAGTGTTTAGTTCCCTCTTTGCGTCCCTCATAGCTTGATCCGAAAAAGTTACAG
For B9, the binding signal (Int15) was 1.86 fraction of Bxb1.

B10: Int13 attB (dsDNA)
DNA 1: CGCATACATTGTTGTTGTTTTTCCAGATCCAGTTGGTCCTGTAAATATAAGCAATCCATGTGAGT
DNA 2: ACTCACATGGATTGCTTATATTTACAGGACCAACTGGATCTGGAAAAACAACAACAATGTATGCG
B10 was tested, and the binding signal (Int13) was 0.295 fraction of Bxb1.

B11: Int21 attP (dsDNA)
DNA 1: GTTAATAATATGTATTTAAGTCTAACTTATCATGACAAATTTGACTAAAATACAAAAAGGC
DNA 2: GCCTTTTTGTATTTTAGTCAAATTTGTCATGATAAGTTAGACTTAAATACATATTATTAAC
B11 was tested, and the binding signal (Int21) was 0.184 fraction of Bxb1.

B12: Int18 attP (dsDNA)
DNA 1: TATTTCTGTATTTTAGTCAAAGTAATTAAGATAAGTTAGAGTTAGTAACAGTATTTTAACTT
DNA 2: AAGTTAAAATACTGTTACTAACTCTAACTTATCTTAATTACTTTGACTAAAATACAGAAATA
In the case of B12, the binding signal (Int18) is reported as 1.76 fraction of Bxb1.

B13: Int22 attB (dsDNA)
DNA 1: CAAGAAACGTTCCGTCTGTTTGTGTCAGCTGCGCGAAATTAATGACCGGATCGTTTGTTCC
DNA 2: GGAACAAACGATCCGGTCATTAATTTCGCGCAGCTGACACAAACAGACGGAACGTTTCTTG
B13 was tested, and the binding signal (Int22) was 0.945 fraction of Bxb1.

B14: Int16 attP (dsDNA)
DNA 1: GTATCTTGATGTACAACATTACTCTTTATTTTCAAATACAGAATAATGTTGCATATAATATT
DNA 2: AATATTATATGCAACATTATTCTGTATTTGAAAATAAAGAGTAATGTTGTACATCAAGATAC
For B14, the binding signal (Int16) was 0.21 fraction of Bxb1.
